Assay results taken from publication PMC5651008, “The Copper Homeostasis Transcription Factor CopR Is Involved in H2O2 Stress in Lactobacillus plantarum CAUH2”.

Biological target: T1, CopR (CopRHis6) (Lactobacillus plantarum CAUH2, UniProt F9UU50 1-142)
T1 sequence: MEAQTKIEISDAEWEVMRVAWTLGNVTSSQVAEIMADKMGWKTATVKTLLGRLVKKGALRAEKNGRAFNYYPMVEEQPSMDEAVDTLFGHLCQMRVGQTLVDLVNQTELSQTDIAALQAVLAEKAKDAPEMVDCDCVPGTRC
Test: EMSA; no Cu2+ added; 2.5 ug CopRHis6, 20 fmol probe; 20 uL: 1x LightShift binding buffer, 50 ng/uL poly(dI-dC), 2.5% glycerol, 0.05% NP-40, 5 mM MgCl2, 20 fmol probe, 2.5 ug CopRHis6; pH, salt and temperature not
Conditions: protein: recombinant; tags: C-terminal His6; chain copies: 2; label: 3' biotin; blunt

B1: copB promoter probe (EMSA copB-F/-R) (dsDNA)
DNA 1: GTGTTTTTCTTGACTTTTATCGTCTACAATTGTAAACTTTAGCCATAAATTACAGATGTAGACAAT
DNA 2: ATTGTCTACATCTGTAATTTATGGCTAAAGTTTACAATTGTAGACGATAAAAGTCAAGAAAAACAC
  binding result: binds
